Source: patent US20090233319

Target: T1, recombinant ICAD protein, O00273
T1 chain: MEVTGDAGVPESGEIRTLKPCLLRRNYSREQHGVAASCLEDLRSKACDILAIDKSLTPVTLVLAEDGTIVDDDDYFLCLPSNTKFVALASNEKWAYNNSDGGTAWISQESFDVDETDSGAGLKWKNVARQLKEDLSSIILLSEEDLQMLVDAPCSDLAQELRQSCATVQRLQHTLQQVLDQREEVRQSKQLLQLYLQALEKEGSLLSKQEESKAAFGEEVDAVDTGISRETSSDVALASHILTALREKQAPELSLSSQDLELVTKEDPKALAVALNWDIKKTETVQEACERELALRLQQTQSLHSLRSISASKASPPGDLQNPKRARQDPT

B1: purified caspase-14 from human cornified cells (heterodimer of large subunit 17 KDa and small subunit 11 KDa) (protein)
chain 1: SLEEEKYDMSGARLALILCVTKAREGSEEDLDALEHMFRQLRFESTMKRDPTAEQFQEELEKFQQAIDSREDPVSCAFVVLMAHGREGFLKGEDGEMVKLENLFEALNNKNCQALRAKPKVYIIQACRGEQRDPGETVGGD
chain 2: KDSPQTIPTYTDALHVYSTVEGYIAYRHDQKGSCFIQTLVDVFTKRKGHILELLTEVTRRMAEAELVQEGKARKTNPEIQSTLRKRLYLQ
In the case of B1, the “ICAD decomposition by caspase-14 in the presence of a kosmotropic salt (Western blot with anti-ICAD IgG)” value is reported as “intact ICAD protein was reduced and the two major decomposition products were increased, thus indicating that purified caspase-14 has a limited decomposing effect on ICAD” and the “ICAD hydrolysis by caspase-14 in ordinary caspase assay buffer (Western blot with anti-ICAD IgG)” value is reported as “showed absolutely no hydrolytic activity of the purified caspase-14 for ICAD”.
